Assay results from the supplement of paper PMC7877785.
± gives the uncertainty stated by the source.

Experiment: self-splicing fitness, log relative to wild type (ln ratio); higher = more splicing; Tetrahymena group I intron in knt gene, E. coli kanamycin selection, DiMSum; sequences stand for … in CUCUCU…GGAGGGAAAAGUUAUCAGGCAUGCACCUGGUAGCUAGUCUUUAAACCAAUAGAUUGCAUCGGUUUAAAAGGCAAGACCGUCAAAUUGCGGGAAAGGGGUCAACAGCCGUUCAGUACCAAGUCUCAGGGGAAACUUUGAGAUGGCCUUGCAAAGGGUAUGGUAAUAAGCUGACGGACAUGGUCCUAACCACGCAGCCAAGUCCUAAGUCAACAGAUCUUCUGUUGAUAUGGAUGCAGUUCACAGACUAAAUGUCGGUCGGGGAAGAUGUAUUCUUCUCAUAAGAUAUAGUCGGACCUCUCCUUAAUGGGAGCUAGCGGAUGAAGUGAUGCAACACUGGAGCCGCUGGGAACUAAUUUGUAUGCGAAAGUAUAUUGAUUAGUUUUGGAGUACUCGUGGUCG
Method in brief: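 A randomised library covering all eight P1ex-region intron nucleotides was built with the intron in the knt kanamycin-resistance gene on pET-22b(+) and held in E. coli BL21(DE3). Cells were grown overnight at 37°C or 30°C on LB agar, with or without 25 μg/mL kanamycin, plus 100 μg/mL carbenicillin, 50 μM IPTG and 0.2% rhamnose, and pooled colonies were amplicon-sequenced on an Illumina HiSeq 2500. DiMSum fitness is the error-weighted combination of wild-type-normalised replicate fold changes, kanamycin versus none.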

Sequence	self-splicing fitness (ln) (30 °C)	self-splicing fitness (ln) (37 °C)
UGAGAGCAAUAUUACGACAA	-0.796 ± 0.32	-1.99 ± 0.43
UGAGAGCAAUAUUACGAGGC	-2.98 ± 0.22	-2.17 ± 0.33
UGAGAGCAAUAUUACGAGGG	-3.68 ± 0.35	-1.09 ± 0.36
UGAGAGCAAUAUUACGCAAA		-0.61 ± 0.36
UGAGAGCAAUAUUACGCAAG	-3.21 ± 0.32	-2.74 ± 0.44
UGAGAGCAAUAUUACGCCGU	-3.58 ± 0.47	
UGAGAGCAAUAUUACGCUCG		-1.32 ± 0.45
UGAGAGCAAUAUUACGCUGC	-2.67 ± 0.42	
UGAGAGCAAUAUUACGGCUU	-4.13 ± 0.42	
UGAGAGCAAUAUUACGGGUA	-2.66 ± 0.37	
UGAGAGCAAUAUUACGUAUA	-3.03 ± 0.42	-1.66 ± 0.35
UGAGAGCAAUAUUACGUCGA	-2.82 ± 0.39	-3.1 ± 0.47
UGAGAGCAAUAUUACGUGAU	-3.97 ± 0.46	-2.72 ± 0.38
UGAGAGCAAUAUUACGUUAU	-2.88 ± 0.23	-2.89 ± 0.43
UGAUAGCAAUAUUACGAAGC	-3.24 ± 0.32	
UGAUAGCAAUAUUACGCAUA	-2.13 ± 0.19	-0.977 ± 0.16
UGAUAGCAAUAUUACGCAUC		-1.53 ± 0.49
UGAUAGCAAUAUUACGCCGU	-4.2 ± 0.43	-2.01 ± 0.2
UGAUAGCAAUAUUACGCGUC	-3.08 ± 0.31	
UGAUAGCAAUAUUACGGAUA	-3.57 ± 0.25	-1.6 ± 0.19
UGAUAGCAAUAUUACGGGGC	-3.5 ± 0.29	
UGAUAGCAAUAUUACGGUAG	-2.38 ± 0.2	-1.12 ± 0.17

Sequence	self-splicing fitness (ln) (30 °C)	self-splicing fitness (ln) (37 °C)
UGAUAGCAAUAUUACGGUUC		-1.46 ± 0.27
UGAUAGCAAUAUUACGUAGA	-2.3 ± 0.15	-0.984 ± 0.17
UGAUAGCAAUAUUACGUGAG	-0.705 ± 0.05	-0.543 ± 0.087
UGAUAGCAAUAUUACGUGCG	-0.579 ± 0.1	-0.921 ± 0.087
UGAUAGCAAUAUUACGUGUU	-3.87 ± 0.19	-2.6 ± 0.2
UGAUAGCAAUAUUACGUUCA	-0.43 ± 0.087	0.075 ± 0.093
UGAUAGCAAUAUUACGUUGC	-2.16 ± 0.17	-2.32 ± 0.28
UGAUAGCAAUAUUACGUUUG	-1.26 ± 0.073	0.0201 ± 0.099
UGCAAGCAAUAUUACGACGC	-1.44 ± 0.4	-0.865 ± 0.24
UGCAAGCAAUAUUACGACUA	0.0901 ± 0.093	0.525 ± 0.11
UGCAAGCAAUAUUACGAGUA	-0.888 ± 0.083	0.181 ± 0.083
UGCAAGCAAUAUUACGAUGA	-0.161 ± 0.093	0.0415 ± 0.097
UGCAAGCAAUAUUACGCACC	-1.89 ± 0.24	-1.25 ± 0.32
UGCAAGCAAUAUUACGCAUA	-2.59 ± 0.2	-2.33 ± 0.2
UGCAAGCAAUAUUACGCCCC	-0.548 ± 0.19	-0.556 ± 0.32
UGCAAGCAAUAUUACGCGGG	-3.73 ± 0.27	-2.42 ± 0.22
UGCAAGCAAUAUUACGCGUA	-1.45 ± 0.18	-1.57 ± 0.17
UGCAAGCAAUAUUACGCUUC	-3.15 ± 0.24	-3.33 ± 0.32
UGCAAGCAAUAUUACGGAAU	-2.88 ± 0.19	-2.45 ± 0.2
UGCAAGCAAUAUUACGGAUC	-3.09 ± 0.17	-2.38 ± 0.16
UGCAAGCAAUAUUACGGGCA	-1.4 ± 0.11	-0.815 ± 0.096
